Here are results for 41 sequences from the nanobody polyreactivity screen of Harvey et al. (2022).

A short description of the data set: yeast display, Sf9 membrane polyspecificity reagent, FACS + sequencing; frameworks hold sequencing errors. The essentials:
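After 36–48 hours of galactose induction, yeast (Saccharomyces cerevisiae BJ5465) displaying a synthetic nanobody library were stained at 4 °C for 1 hour with 10% biotinylated, detergent-solubilized Sf9 membrane reagent. Streptavidin microbeads enriched the stained cells before FACS sorting into low and high (top ~1%) gates on anti-HA and streptavidin fluorescence. Each clone's polyreactivity label reflects its gate of origin.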
Turning to “QVQLVESGGGLVQAGGSLRLSCAASGRIFISYTMGWDRQAPGKERELVAGIDSSGTSTYYADSVKGRFTISRDNAKNTVYLQMNSLKPEDTAVYYCNVDGNWKDTSTELDYWGQGTQVTVSS”, the “polyreactivity (PSR sort gate)” value is “low polyreactivity”.

With “QVQLVESGGGLVQAGGSLRLSCAASGRIFITNAMGGYRQAPGKERELVASITVSGDSTYYADSVKGRFTISRDNAKNTVYLQMNSLKPEDTAVYYCAADYYALDKVLGYNYWGQGTQVTVSS”, the “polyreactivity (PSR sort gate)” value is on record as “low polyreactivity”. The result for “QVQLVESGGGLVQAGGSLRLSCAASGRIFIYNAMGWYRQAPGKERELVAAISSGGDTYYADSVKGRFTISRDNAKNTVYLQMNSLKPEDSAVYYCAATFVVKGTRFGYWGQGTQVTVSS” reads “high polyreactivity”; that for “QVQLVESGGGLVQAGGSLRLSCAASGRIFIYYARGWYRQAPGKERELVAAISGGGGRTYYADSVKGRFTISRDNAKNTVYLQMNSLKPEDTAVYYCAAGVYTGQDEYDYWGQGTQVTVSS”, “low polyreactivity”.

For “QVQLVESGGGLVQAGGSLRLSCAASGRIFKDNAMGWYRQAPGKERELVATIDSGGDTNYADSVKGRFTISRDNAKNTVYLQMNSLKPEDTAVYYCNTEGFLSAVYAFGYWGQGTQVTVSS”, the “polyreactivity (PSR sort gate)” value is listed as “low polyreactivity”. The entry for “QVQLVESGGGLVQAGGSLRLSCAASGRIFKFYAMGWYRQAPGKERELVAGITTSGGSTYYADSVKGRFTISRDNAKNTVYLQMNSLKPEDTAVYYCAASRHFARHRGYYFRYDYWGQGTQVTVSS” is “high polyreactivity”; for “QVQLVESGGGLVQAGGSLRLSCAASGRIFKGNAMGWYRQAPGKERELVAAISRNGGSTYYADSVKGRFTISRDNAKNTVSLLMNSLKPEDTAVYYCAAYGYRYTEGGWWRMDYWGQGTEVTVSS” it is “high polyreactivity”; for “QVQLVESGGGLVQAGGSLRLSCAASGRIFKGYAMGWYRQAPGKERELVAAITWRGGTTYYADSVKGPFTISRDNAKNTVYLQMNSLKPEDTAVYYCAAANWQRYYYWGQGTQVTVSS” it is “high polyreactivity”. The result for “QVQLVESGGGLVQAGGSLRLSCAASGRIFKINAMGWYRQAPGKERELVAAITRSGGTTYYADSVMGRFTISRDHAKNTVYLQMNSLKPEDTAVYYCAARVVQYPYYYWGQGTQVTVSS” reads “high polyreactivity”; that for “QVQLVESGGGLVQAGGSLRLSCAASGRIFKLNAMGWYRQAPGNERELVAAITFAGGSTYYADSVKGRFTISRDIAKNTVYLQMNSLKPEDTAVYYCNADFSNVEMDYWGQGTQVNVSS”, “low polyreactivity”; that for “QVQLVESGGGLVQAGGSLRLSCAASGRIFKLYAMGLYRQAPGKERELVAASSKSGGSTYYADSVKGRFKISRDNAKNTVYLQMNSLKPEDSAVYYCNADPVRSGLDYWGQGTQVTVSS”, “high polyreactivity”.

Take “QVQLVESGGGLVQAGGSLRLSCAASGRIFKNYAKGWYRQAPGKERELVAAISWSGGRTYYSDSVKGRFTISRDNAKNTVYLQMNSLKPEYTAVYYCAARFRRTRVTYYYWGQGTQVTVSS”: the “polyreactivity (PSR sort gate)” value is reported as “high polyreactivity”. “QVQLVESGGGLVQAGGSLRLSCAASGRIFKNYAMGWYRQAPGKERELVAAITWSGGRTYYADSVKGRFTISRDNAKNTVYLQMNSLKPEDTAVYYCATAARRGPTSIEPFGYGSWGQGTQVTVSS”: the “polyreactivity (PSR sort gate)” value was “high polyreactivity”. The result for “QVQLVESGGGLVQAGGSLRLSCAASGRIFKRNAKGWYRQAPGKEWELVATISGSGGSTYYADSVKGRFTISRDNAKNTVYLQMNSLKPEDTAVYYCAAVPGYPRDSLYNYWGQGSQVTVSS” reads “high polyreactivity”; that for “QVQLVESGGGLVQAGGSLRLSCAASGRIFKRNAMGWYRQAPGKERELVAAISWRGGSTYYADSVKGRFTISRDNAKNTVYLQMNSLKPEDTAVYYCNVGYGGSSDGGYDYWGQGTQVTVSS”, “high polyreactivity”; that for “QVQLVESGGGLVQAGGSLRLSCAASGRIFKRNVMGWYRQAPGKERELVAAIRYSGGNTYYADSVKGRFTISRDNAKNTVYLQMNSLKPEDTAVYYCAAQQWSYTQSRLYDMGYWGQGTQVTVSS”, “high polyreactivity”. Regarding “QVQLVESGGGLVQAGGSLRLSCAASGRIFKRYTMGWYRQAPGKERELVAGITFSGGSTYYADSVKGRFTISRDNAKNTVYLQMHSLKPEDTAVYDCNARVPPQGWGPWKAFDYWGQGTQVTVSS”, the “polyreactivity (PSR sort gate)” value is on record as “low polyreactivity”.

As for “QVQLVESGGGLVQAGGSLRLSCAASGRIFKSYTMGWYRQAPGKERALVAGITWSGGSTYYADSVKGRFTISRDNAKNTVYLQMNSLKPDDTAVYYCATKTFYNYGFWGQGTQVTVSS”, the “polyreactivity (PSR sort gate)” value was “high polyreactivity”. The result for “QVQLVESGGGLVQAGGSLRLSCAASGRIFKSYVMGWYRQATGKERELVAAITRTGGSTYYADSVKGRFTISRDNAKNTVYLQMNSLKPVDTAVYYCNARYSWPRATWYDYWGQGTQVTVSS” reads “high polyreactivity”. The result for “QVQLVESGGGLVQAGGSLRLSCAASGRIFKTYAMGWYRQAPGKERELDAAITASGGRTYYADSVKGRFTISRDNAKNTVYLQMNSLKPEDTAVYYCAADSGNEYDYWGQGTQVTVSS” reads “high polyreactivity”; that for “QVQLVESGGGLVQAGGSLRLSCAASGRIFKTYAMGWYRQAPGKERELVAAITASGGRTYYADSVKGRFTISRDNAKNTVYLQMNSLTPEDSAVYYCAAPLLRDLRSPYSYNYWGQGTQVTVSS”, “low polyreactivity”. The entry for “QVQLVESGGGLVQAGGSLRLSCAASGRIFKVYAMGWSRQAPGKERELVAAITSGGSTNYADSVKGRFTISRDNAKTTVYLQMNSRKPEDTAVYYCAVVSGRWSAVQYDYWGQGTQVTVSS” is “high polyreactivity”. As for “QVQLVESGGGLVQAGGSLRLSCAASGRIFKVYAMGWYRQAHGKEREMVAAITSRGGSTYYADSVKGRFTISRDNSKNTVYLQMNSLKPEDTAVYYCAAARGLPSNKYYYWGQGTQVTVSS”, the “polyreactivity (PSR sort gate)” value was “high polyreactivity”.

Consider “QVQLVESGGGLVQAGGSLRLSCAASGRIFKVYAMGWYRQAPGKERELVATISRGGSTYYADSVKGRFTISRDNAKNTVYLQMNSLKPEDTAVYYCATQRERYYWFGAWSYDYWGQGTQVTVSS”, for which the “polyreactivity (PSR sort gate)” value is “low polyreactivity”. The result for “QVQLVESGGGLVQAGGSLRLSCAASGRIFKWYAMGWYRQAPGKERELVAAISRSGGTTYYADSVKGRFTISSDNAKNTDYLQMNSLKPEDTAVYYCATRNIYFSTVDYWGQGTQVTVSS” reads “high polyreactivity”; that for “QVQLVESGGGLVQAGGSLRLSCAASGRIFKYNAMGWYRQAPGKERELVAAISGGGSTNYADSVKGRFTISRDNAKNTVYLQMNSLKPEDTAVYYCAKGYRRVYGPFYYWGQGTQVTVSS”, “low polyreactivity”. The entry for “QVQLVESGGGLVQAGGSLRLSCAASGRIFKYYAMGWYRQAPGKERELVAAITRNGGITYYADSVKGRFTISRDNAKNTVYLQMNSLKPEDTAVYYCAAGQRGRYSISSDEYNYWGQGTQVTVSS” is “high polyreactivity”; for “QVQLVESGGGLVQAGGSLRLSCAASGRIFKYYAMGWYRQAPGKERELVARISRSSGNTYYADSVKGRFTISRDNAKNTVYLQMNSLKPEDTAVYYCATVPHYNGFNYWGQGTQVTVSS” it is “high polyreactivity”; for “QVQLVESGGGLVQAGGSLRLSCAASGRIFKYYAMGWYRQAPGKERELVARISSGGGRTYYADSVKGRFTISRDNAKNTVYLQMNSLKPEDTAVYYCAADPPASYHTWYGYWGQGTQVTVSS” it is “high polyreactivity”. The result for “QVQLVESGGGLVQAGGSLRLSCAASGRIFKYYAMGWYRQAPGKERELVSTISRGGGSTFYADSVKGRFTISRDNAKNTVYLQMNSLKPEDTAVYYCAVDVTFKRWYSTASSTHDYWGQGTQVTVSS” reads “high polyreactivity”; that for “QVQLVESGGGLVQAGGSLRLSCAASGRIFKYYVMGWYRQAPGKERELVATISSGSGTNYADSVKGRFTISRDNAKNTVYLQMNSLKPEDTAVYYCAARWTPRVRGYNYWGQGTLVTVSS”, “high polyreactivity”. As for “QVQLVESGGGLVQAGGSLRLSCAASGRIFLFYDMGWYRQAPGKERELVATISFRGGSTYYADSVKGRFTISRDNAKNTVYLQMNSLKPEDTAVYYCAKQNKRGYSTSAYYYWGQGTQVTVSS”, the “polyreactivity (PSR sort gate)” value was “low polyreactivity”.

For the sequence “QVQLVESGGGLVQAGGSLRLSCAASGRIFLGHDMGWYRQAPGKERELVATISSSGDSTYYADSVKGRFTISRDNAKNTVYLQMNSLKPEDTAVYYCAVKSTDVPVRGSPYDYWGQGTQVTVSS”, the “polyreactivity (PSR sort gate)” value is “low polyreactivity”.

Turning to “QVQLVESGGGLVQAGGSLRLSCAASGRIFLGYAMGWYRQAPGKEREFVAAITSSGGSTYYADSVKGRFTISRDNAKNTVYLLMNSLKPEDTAVYYCAARVTKLRTSSLRGYWGQGTQVTVSS”, the “polyreactivity (PSR sort gate)” value was “high polyreactivity”. The result for “QVQLVESGGGLVQAGGSLRLSCAASGRIFLRYTMGWYRQAPGKERELVAAISARTTGTYYADSVKGRFTISRDNAKNTVYLQMNSLKPEDTAVYYCAAKSKLSRDLFSWGQGTQVTVSS” reads “low polyreactivity”.

As to “QVQLVESGGGLVQAGGSLRLSCAASGRIFLSYAMGWYRQAPGKEREFVAAITSSGGSTSYADSVKGRFTISRDNAKNTVYLQMNSLKPEDTAVYYCNARAYIFGQLKYDYWGQGTQVTVAS”, the “polyreactivity (PSR sort gate)” value is “low polyreactivity”.

As to “QVQLVESGGGLVQAGGSLRLSCAASGRIFLTNAMGSYRQAPGKERELVAAIRFSGGRTYYADSVKGRFTISRDNAKNTVYLQMNSLKPEDNAVYYCAADPPRTRYRNARFDYWGQGTQVTVSS”, the “polyreactivity (PSR sort gate)” value is reported as “high polyreactivity”.

As for “QVQLVESGGGLVQAGGSLRLSCAASGRIFLTNTMGWYRQAPGKERELVAGISRGGRTYDADSVKGRFTISRDNAKNTVYLLKNSLKPEDTAVYYCAGRHRTPIYPYKRDYWGQGTQVSVSS”, the “polyreactivity (PSR sort gate)” value is “high polyreactivity”.

Turning to “QVQLVESGGGLVQAGGSLRLSCAASGRIFLVNAMGWYRQAPGKEREFVAAITDNPGSTYYADSVKGRFTISRDNAKNTVYLQMNSLKPEDTAVYYCAKQRGNKRIGYDSWGQGTQVTVSS”, the “polyreactivity (PSR sort gate)” value was “low polyreactivity”. The entry for “QVQLVESGGGLVQAGGSLRLSCAASGRIFLYYAMGWYRQAPGKERELVAASTYTDGSTYYADSVKGRFTISRDNAKNTVYLQMNSLKPEDTAVYYCAAEFYYYDYWGQGTQVTVSS” is “low polyreactivity”; for “QVQLVESGGGLVQAGGSLRLSCAASGRIFLYYTMGWYRQAPGKERELDAAITRSGGSTYYADSVKGRFTISRDNAKNTDYLQMNSLKPEDTAVYYCNRAYVRYVPMNYWGQGTQVTVSS” it is “high polyreactivity”.
